The values below come from paper PMC4384432.

In the assay the target is β-haemoglobin (β^h), haem-bound, from human blood (human). Description: SEC-MALS.

For the substance “β-haemoglobin (β^h), haem-bound, from human blood (natural protein)”, the stoichiometry N was found to be 4.

As a reminder, the stoichiometry N is the number of molecules, sites or subunits per partner or assembly.
